# Experimental data as given in patent US7919461B2, “Erythropoietin receptor peptide formulations and uses” (Affymax, Inc., priority 2005, dated 2011).
# Entries after “also recorded” stand apart in the source; their conditions may differ. Bridge positions count the residues as written; N and C are the ends. Square brackets hold non-standard residues; d marks the D form. Ends that are not written are not given here. 1Nal = N[C@@H](Cc1cccc2ccccc12)C(=O)O; Sar = CNCC(=O)O
# Tests used:
# [1] = Pharmacology studies in animals, stimulation of erythropoiesis; type: in vivo, mice; rats, dogs, rabbits and monkeys
# [2] = Pharmacokinetic studies in rats; type: in vivo; conditions: species not stated
# [3] = Phase 1 single IV dose study in normal healthy volunteers, pharmacodynamics; type: in vivo, human
# Excerpt: (§1) Peptide I has been tested in […] in one Phase 1 study. This first-in-human study with Peptide I was a randomized, double-blind, placebo-controlled, single-dose, IV, escalating dose, safety and tolerability trial. The primary objectives of the study were to evaluate the safety and pharmacokinetics of Peptide I, and to establish a pharmacologically active dose (PAD). Cohorts of seven male volunteers were scheduled to receive single doses of Peptide I or placebo in a 5:2 ratio. Cohorts were to be added at increasing dose levels until a PAD, as determined by an increase in hemoglobin from baseline values, was observed, at which point the dose level identified as the PAD would be repeated in another cohort of volunteers.
# (§2) The study was initiated in four cohorts were enrolled in a consecutive manner at Peptide I doses of 0.025, 0.05, 0.1 mg/kg, and […], respectively (single dose per cohort). […] As such, the study was terminated.
# [4] = Phase 1 single IV dose study in normal healthy volunteers, pharmacokinetics; type: in vivo, human; conditions: dose normalized, ANOVA
# Excerpt: as §1, §2
# In the 0.025 mg/kg dose group, Peptide I concentration peaked between 5 and 15 minutes, while tmax approached 1 hour for the 0.1 mg/kg dose.
# [5] = Phase 1 single IV dose study in normal healthy volunteers, safety; type: in vivo, human
# Excerpt: as §1, §2
# [6] = Phase II multi-dose once-monthly SC study in pre-dialysis chronic kidney disease patients; type: in vivo, human
# Method: A multi-center, open-label, sequential dose-finding phase II clinical trial involving patients with chronic kidney disease was performed in order to evaluate the safety and pharmacodynamics of multiple doses of once-monthly (Q4W) subcutaneous (SC) delivery of Peptide I (SEQ ID NO:2). A total of 60 erythropoiesis-stimulating-agent-naïve, pre-dialysis, chronic kidney disease (CKD) patients [hemoglobin (Hgb) levels 9.0-10.9 g/dL, ferritin >100 ug/L and transferrin saturation (TSAT)>20%] were enrolled into three dose cohorts. Patients received up to six once-monthly SC drug doses. The starting doses were 0.025 mg/kg (n=15), 0.050 mg/kg (n=30) and 0.075 mg/kg (n=15). Dose titration was allowed after the first dose, based on patient Hgb levels.
# Dose titrations were allowed after the patient's initial dose. Dose adjustments were ±25% of the previous dose, depending on the patient's measured hemoglobin (Hgb) level.
substance,measurement,setting,value
"PEGylated homodimer of peptide monomers (AcG)GLYACHMGPIT(1-nal)VCQPLR(MeG)K (SEQ ID NO: 2); fully synthetic EPO receptor agonist (Ac-GGLYACHMGPIT[1Nal]VCQPLR[Sar]K; disulfide 6-15 (inferred); not fully specified (residue 1); printed as (AcG)GLYACHMGPIT(1-nal)VCQPLR(MeG)K; also: homodimer via branched linker on K21 ε-amino group, PEG attached to linker) [Peptide I]",rise in reticulocytes and RBCs as measured by hemoglobin levels,[1]; rats and monkeys,dose proportional
same,stimulation of erythropoiesis,"[1]; single or repeat dose, mice, rats (normocythemic and nephrectomized), dogs, rabbits, monkeys",dose-dependent activity
same,Biodistribution,[2],primarily to the plasma fraction
same,increase in hemoglobin associated with the PAD,[3]; 0.1 mg/kg,≥ 1.0 g/dL
same,average maximum increase in hemoglobin from baseline,"[3]; 0.1 mg/kg, 10 recipients",1.36 ± 0.39 g/dL
same,average hemoglobin levels at Day 42,"[3]; 0.1 mg/kg, Day 42",returned to baseline
same,difference in change from baseline hemoglobin versus placebo,"[3]; 0.1 mg/kg, Day 42 as throughout the study",≥ 0.5 g/dL
same,time of maximum reticulocyte counts postdose,[3]; all dose cohorts,approximately 7 days
same,"changes in other pharmacodynamic parameters (red cell count, hematocrit, ferritin, reticulocyte hemoglobin content, soluble transferrin receptor, EPO)","[3]; human, in vivo",consistent with stimulation of erythropoiesis
same,hemoglobin response and change from baseline (mean and maximum),[3]; over 28 days post-dose,dose-dependent increases
same,Reticulocyte count (absolute number and percent),"[3]; single IV 0.025, 0.05, 0.1 mg/kg",dose-dependent increase
same,pharmacologically active dose (PAD),"[3]; single IV dose, NHV",0.1 mg/kg
same,Serum EPO levels,[3]; with increasing dose,transiently decreased
same,AUC(0-infinity) relationship with dose,[4],evidence of non-linearity at the highest dose of 0.1 mg/kg; also recorded: nonlinear at the 0.1 mg/kg dose
same,"abdominal pain, frequency",[5]; Peptide I recipients,10.0%
same,"headache, frequency",[5]; Peptide I recipients,20.0%
same,"nasopharyngitis, frequency",[5]; Peptide I recipients,10.0%
same,"nausea, frequency",[5]; Peptide I recipients,10.0%
same,subjects who experienced adverse events,[5]; Peptide I recipients,11 of 20
same,Serious Adverse Events,"[5]; human, in vivo",no Serious Adverse Events
same,antibodies specific to Peptide I,"[5]; human, in vivo",None of the subjects in this trial developed antibodies
same,"vital signs, electrocardiograms (ECGs) or laboratory values","[5]; human, in vivo",no clinically significant changes
same,safety and tolerability,"[5]; single IV doses of 0.025, 0.05, or 0.1 mg/kg",safe and well tolerated
same,patients reporting adverse events,[6]; 60 patients,18%
same,injection site reaction,[6]; SC,no injection site reaction was reported
same,hemoglobin (Hgb) increase,[6]; dosed monthly,sustained increase in hemoglobin (Hgb) up to week 22
same,number of adverse events,"[6]; human, in vivo",36
same,relation of adverse events to study drug,"[6]; human, in vivo",not related to study drug
same,tolerability of multiple monthly subcutaneous injections,"[6]; human, in vivo, sc",well-tolerated
same,correction of anaemia,[6]; monthly dosing,correction of anaemia in patients by week eight
